Reference: the nanobody polyreactivity screen of Harvey et al. (2022)

Test: yeast display, Sf9 membrane polyspecificity reagent, FACS + sequencing; frameworks hold sequencing errors
How it was run: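 Using colony PCR, genes from sorted yeast display clones were amplified, then sequenced on MiSeq at 2 × 250 and filtered by CDR length. The clones had been stained with 10% biotinylated, detergent-solubilized Sf9 membrane reagent for 1 hour at 4 °C and sorted by FACS into low and high (top ~1%) gates on anti-HA and streptavidin fluorescence. Polyreactivity labels come from the gate of origin.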
With “QVQLVESGGGLVQAGGSLRLSCAASGRTIASYTMGWYRPAPGKERDLVAAISKSGGSTYYADSVKGRFTISRDNSKNTVYLQMNSLKPEDTAVYYCNAVGARVASATGMEYWGQGTQVTVSS” the “polyreactivity (PSR sort gate)” value was “high polyreactivity”. In the case of “QDQLVESGGGLVQAGGSLRLSCAASGSTFETNAMGWYRQAPGKERELVAAISGRGGSTYYADSVKGRFTFSRDNAKNTVYLQMNSLKPEDTAVFYCDATYGTGRRSKYGYCGQGTQVTVSS”, the “polyreactivity (PSR sort gate)” value was “high polyreactivity”. In the case of “QVQLVESCGGLVQAGGSLRLSCAASGSTLATYAMGWYRQAPWKERELDAVITRGGRTYYADSVKGRFTISRDNAKNTVYLQMNSLKPEDTAVFYCNATRAGENPDGGDEYWGQGTQVTVSS”, the “polyreactivity (PSR sort gate)” value was “high polyreactivity”. With “QVQLVESGGGLVQAGGSLRLSCAASGNTFYTYGMGWYRQAPGKERELVAAINHNGGSTYYADSVKARFTISRDNAKNTVYLQMNSLKPEDTAVYYCNADYSTYVERGSSVYYWYDYWGQGTQVTVSS” the “polyreactivity (PSR sort gate)” value was “low polyreactivity”. In the case of “QVQLVESGGGLVQAGGSLRLSCAASGSTFLYYAMGWYRQAPGKEREFVAAISISGGSTYYADSVKGRFTISRDNAKNTVYLQMNSLKPEDTAVYYCAARKKEYKPGNYWGQGTQVTVSS”, the “polyreactivity (PSR sort gate)” value was “low polyreactivity”. With “QVQLVESGGGLVQAGGSLRLSCAASGSIIKWNAMGWDRKAPGQEREFVASITRSGGSTYYADSVKGRITISRDNAKNTVYLQMNSRKPEDTAVFYCARSYGWYRWAGYDYWGKGTQVTVSS” the “polyreactivity (PSR sort gate)” value was “high polyreactivity”. With “QVQLVESGGGLVQAGGSLRLSCAASGRIFGYTMGWYRQAPGKERELVAAISKSGGSTYYADSVKGRFTISRDNAKNTVYLQMNSLKPEDTAVYYCNKPQRILYDYWGQGTQVTVSS” the “polyreactivity (PSR sort gate)” value was “high polyreactivity”. With “QVQLVESGGGLVQAGGSLRLSCAASGRIFPIYAMGWYRQAPGKERELVAAISRTDGTTYYADSVKGRFTISRDYANNTVYLQMNSLKPEDTAVYYCAADYLRAPYYQYEYWGQGTQVTVSS” the “polyreactivity (PSR sort gate)” value was “low polyreactivity”. In the case of “QVQLVESGGGLVQAGGSLRLICAASGSTYYDYAMGWYRQAPGKERELVAGISRSGGSTYYADSVKGRFTISRDNAKNSVYLQMNSLKPEDTAVYYCAARNYRYLYRIEYWGQGTQVTVSS”, the “polyreactivity (PSR sort gate)” value was “high polyreactivity”. For “QVQLVASGGGLVQAGGSLRLSCAASGRTSWYYAMGWYRHAPGKERELVAAITASGGSTYADSVKGRFTISRDNAKNTVYLQMNSLKPEDTAVYYCAAERPYSRVGYYYWGQGTQVTVSS”, the “polyreactivity (PSR sort gate)” value was “high polyreactivity”. With “QVQLEESGGGIVQAGGSLRLSCAASGSNYASNAMGWYRQAPRKERELVAAINSGDSTNYADSVKGRFTISRDNGKNTVYLQMNSLKTEDTAVYYCSRGLEERYDYWGQGTQVTVSS” the “polyreactivity (PSR sort gate)” value was “low polyreactivity”. In the case of “QVQLVESGGGLVQAGGSLRLSCAASGSTLRGNAMGWYRQAPGKERELVAAISWSGGSTYYADSVKGRFTISRDNAKNTVYLQMNSLKPEDTAVYYRATASPSTRYGRLGDYWGQGTQVTVSS”, the “polyreactivity (PSR sort gate)” value was “low polyreactivity”. With “QVQLVESRGGLVQAGGSLRLSCAASGFIFGFYALGWYRQEPGTEMELVAAITWDGGSTYYADSVKGRFTISRDNAKNTVYLQMNSLKPEDTAVYYCAAYFQYQDVDYDYWGQGTQVTVSS” the “polyreactivity (PSR sort gate)” value was “high polyreactivity”. With “QVQLEESGGGLVQAGGSLRLSCAASGRTFYVNAMGWYRQATGKERELVAAISWSGGSTYYADSVKGRFTISRDNAKNTVYLQINSLKPEDTAVYYCAAEDIEDYEYWGQGTQVTVSS” the “polyreactivity (PSR sort gate)” value was “low polyreactivity”. For “QGQLVVSGGGLVQAGGSLRLSCAASGRTFYWNAMGWSIQAPGKERELFASINGGGSTYYADSVKGRFTISRDNAKNTVYLQMYSLKPEDTAVYYCNAESYEFHRAWGDYDDWGHGTQVTVSS”, the “polyreactivity (PSR sort gate)” value was “low polyreactivity”. With “QVQLVESGGGFVQAGGSLRLSCAASGLTFVANAMGWYRQAPGTESEMVAGITQTGGSTYYADSVKGRFTISRDNAKNTVYLQMISLKPEDTAVYYCAATYRRLRYGKLYYYWGQGTQVTVSS” the “polyreactivity (PSR sort gate)” value was “high polyreactivity”. In the case of “QVQLVESGGGLVQAGGSLRLSCAASGRTFGRYAKGWYRQAPGKERELVATITSGGSTNYADSVKGRFTISRDNAKNTVYLQMNSLKPEDTAVYYCAAEFSPSRWAYSEGALRYNYWGQGTQVTVSS”, the “polyreactivity (PSR sort gate)” value was “low polyreactivity”. For “QVQLVESGGCLVQAGGSLRLSCAASGRSLTDYAMGWYRKAPGKERELVAAISRSGGSTYYADSVKGRFTISRDHAKNTVYLQMNSLKTEDTAVYYCAAGTPKRVGGGYWGQCTQVTVSS”, the “polyreactivity (PSR sort gate)” value was “high polyreactivity”. With “QVQLVESGGGLVQAGGSLRLSCAASGSTSGSYAMGWYRQAPGKERELVATISWSGGRTYYADSVKGRFTISRDNAKNTVYLQMNSLKPEDTAVYYCAARRYAFRYYGYDYWGQGTQVTVSS” the “polyreactivity (PSR sort gate)” value was “high polyreactivity”. With “QVQLVESGGGLVHAGRSLLLSCAASGRTYRLDAMGWYRQSPGKERELVAAITRGGRTNYADSVKGRFTISRDNAKNTFYLQMNSLKPEDTAVYYCADRYVERPTDYYYWGQGTQVTVSS” the “polyreactivity (PSR sort gate)” value was “low polyreactivity”. With “QDQLVDSGGGLVKAGGNLRLSCPASGSTFDYNTMGWNIQEPGKESEMVAVITASGGSTYYADSVKGRFTISRDNAKNTVYLQMNSLKPEDTAVYYCAKDLYVSYYIGTCYYYWGQGTQVTVSS” the “polyreactivity (PSR sort gate)” value was “low polyreactivity”. For “QVQLVESGGGLVQAGGSLRLSCAASGSTFALYAMGWYRQAPGKERELVAVITSGGSTYYADSVKGRFTISRDNAKNTVYLQMNSLKPEDTAVYYCAARRHVRKGPLGYWGQGTQVTLSS”, the “polyreactivity (PSR sort gate)” value was “high polyreactivity”. In the case of “QVQLVESGGGLVQAGGSLRLSCAASGYIFAENAMGWYRQAPGKERELVATITYIGGSTHYADSVKGRFTISRDNAKNTVYLQMNSLKPEDTAVYYCNADNSTYYRSDFGYWGQGTQVTVSS”, the “polyreactivity (PSR sort gate)” value was “low polyreactivity”. In the case of “QVQIVESGGGLVQAGGSLRLSCAASGSTFSYNAMGWYRQAPGKERELVATISNTDSTNYADSVKGRFTISRDNAKNTLYLQMNSLKPEDTSVYSCAAVVSTVDGMEYWGQGTQVNVSS”, the “polyreactivity (PSR sort gate)” value was “low polyreactivity”. With “QVQLVESGGGLVQAGGSLRLSCAASGRIFPYYAMGWYRQAPGKERELVAAISSGTSTYYADSVKGRFTISRDNANNTVYLKMNSLKQEDTAVYYSNGRHRRGRFTHDYDYWGQGTQVTVTS” the “polyreactivity (PSR sort gate)” value was “low polyreactivity”. For “QVQHVESGGGLVQAGGSLRLSCAASGRTFGRNAMGWYRQAPGKESEFVASINQRGGCTYYADSVKGRFTISRDIAKNTVYLQMNSLKPEDTAVYYCAKYVYVGYVRQVPYFRYDYWGQGTQVTVSS”, the “polyreactivity (PSR sort gate)” value was “high polyreactivity”. With “QVQLVESGGGLVQAGGSLRLSCAASGFTFKYYAMGWYRQAPGKEREFVAAISRSGGSTTYADSVKGRFTISRDNAKNTVYLQMNSLKPEDSAVYYCAVAYYTAYTPRDGEYWGQGTQVTVSS” the “polyreactivity (PSR sort gate)” value was “high polyreactivity”. With “QVQLVESGGGLVQAGGSLRLSCAASGSTFPRNAMGWYRQAPGKERELVATITSSAGGTYYADSVKGRFTISRDNAKNTVYLQMNSLKPEDTAVYYCNADKNGFWYTYFGRERDYWGQGTQVTVSS” the “polyreactivity (PSR sort gate)” value was “low polyreactivity”. For “QVQLVESGGGLVQAGGSLRISCAASGSIFLYNDMGWYRQAPGKERELVAAITSTGNTNYADSVKGRFTISRDNAKNTVYLQMNSLNRKRPRSITALNVSCTSVVVGYDYWGQGTQVTVSS”, the “polyreactivity (PSR sort gate)” value was “low polyreactivity”. For “QVQLVESAGGLVQAGGSHRLSCPASGSIFDYNPMGWYTQAPGKESELVAAITSGGSTNYADSVKGRFTISRDNAKNTVYLHMNSLKPEDTAVYYCAADHDYYPSNLDFWGQGTQVTVSS”, the “polyreactivity (PSR sort gate)” value was “low polyreactivity”. In the case of “QVQLGESGGGLVQAGGSLRLSCASSGRILNINSMGWYRQAPGKERELVAAITWRGGRTFYADSVKGRFTISRDYAKNKVYFEMNSLKPEDTAVYYCAASSNTWYPTGYYWGQGSQVTVSS”, the “polyreactivity (PSR sort gate)” value was “high polyreactivity”. In the case of “QVQLVESGGGLVQAGGSLRLSCAASGSIFFSNTMGWYRQAPGKERELVASIRETAGSTNYADSLKGRFTISRDYAKITVYLQMHSLKPEDTAVYYCAARYSPTRYHYGYWGQGTQVTVSS”, the “polyreactivity (PSR sort gate)” value was “low polyreactivity”. For “QVQLVESGGGLLQAGGSLRLSCAASGRIFRYYAMVWYIQAPVKERELVAGISWTGGTTYYADSVNGRFTISLDNAKNSVYLQMYSLKPEDSAVDYCIVRRSTLYDYWGQGTQVTVSS”, the “polyreactivity (PSR sort gate)” value was “high polyreactivity”. In the case of “QVQLVESGGGLVQAGGSLRLSCAASGFTFGGYAMGWYRQAPGKERELVAAISRSGGSTSYADSVKGRFTISRDNAKNTVYLQMNSLKPEDTAVYYCAAKFFRNTYSYGMDYWGLGTQVTVSS”, the “polyreactivity (PSR sort gate)” value was “high polyreactivity”. With “QVQLVESGGGLVHAGGSLRLSCADSGFTFGAYAMGWYRQAPGKERELVATITNSGRTYYADSVKGRFTISRDNAKNTVYLQMNSLNPEDTAVYYCAAQPDGQAMEHWGQGTQVTVSS” the “polyreactivity (PSR sort gate)” value was “low polyreactivity”. In the case of “QVQLVESGGGLVQAGGSLRLICAPSGITFYPYSMGWSRQAPGKERELVAAISGGTNTHYADSVKGRFTISRDNAKNTDYLQMNSLKPVDTAVYYCAAGIDFRRTTSYSFWFDYWGQGTQVTVSS”, the “polyreactivity (PSR sort gate)” value was “high polyreactivity”. In the case of “QVQLVESGGGLVQAGGSLRLSCAASGRIFVPYVMGWYRQAPGKERELVASISDSDTSTYYADSVKGRFTISRDNAKNTVYLQMNSLKPEDSAVYYCNVDYWGQGTQVTVSS”, the “polyreactivity (PSR sort gate)” value was “low polyreactivity”. With “QVQHVESGGGLVQAGGSLRLSCAASGSTFNSYDKGSYRQAPGKERELVAAISSSAASTYYADSVKGRFTISRDNAKKTGYLQMNSLKPEDTAVYYCAAYVYYTYPSCTVYSVSYIYDYWAQGTQVTVSS” the “polyreactivity (PSR sort gate)” value was “low polyreactivity”. In the case of “QVQLVESGGGLVQAGGSLRLSCAASGSTFQPYAMGWYRQAPGKEREFVATISGSAGSTYYADSVKGRFKISRDNAKNTVYLQMNSLKPEDTGVYYCNARPARKSLDYDYWGQGTQVTVSS”, the “polyreactivity (PSR sort gate)” value was “low polyreactivity”. In the case of “QVQLVESGGGLVQAGGSLRLSCAAAGRTFGDYDMGWYRQAPGKERELVAAITSDGTTYYADYVKGRFTISGDNAKNTVYLQMNSLKPEDTAVYYCAADYWYVSWYDYWGHGTQVTVSS”, the “polyreactivity (PSR sort gate)” value was “low polyreactivity”. For “QVQLVESVGGLVQAGGSLRLRCSASGSIFKYNAMGWYRQAPGKVRELVADITRSGGRTYYADSVKGRFTISRDNEKNTVYVQMNSLKTEDTAVYYCYAVTPTTLGDYWGQGTQVTVSS”, the “polyreactivity (PSR sort gate)” value was “high polyreactivity”. With “QVQLQESGGGLVQAGGSLRLSCAASGTISQEDRMGWYRQAPGKEREFVAAIGLGSNTNYADSLKGRFTISRDNAKNTVYLQMNSLKPEDTAVYYCAVSVWQYSDHVYRGQGTQVTVSS” the “polyreactivity (PSR sort gate)” value was “low polyreactivity”. For “QVQLVESGGGLVQAGGSLRLSCAASGSIFKPYAMGWYRQAPGKERELVAAISSSGGSTYYADSVKGRFTISRDNAKNTVYFQMNSLKPEDTAVYYCNADWYYAGYGYWGQGTQVTVSS”, the “polyreactivity (PSR sort gate)” value was “low polyreactivity”.
